Experimental data published in patent publication US5668000A, “Mitochondrial P450” (Sumitomo Chemical Company, Limited, priority 1990, dated 1997).

Key:
[1] = 25-hydroxylation activity of 1α-hydroxyvitamin D3 in yeast subcellular fractions with added ADX, ADR and NADPH; type: biochemical; details: expressed in yeast
Description: (§1) A mitochondrial fraction prepared from the strain AH22/pAC25 and a microsomal fraction prepared from the strain AH22/pAMS25 were used for the measurement of hydroxylation activities. Subcellular fractionation was prepared from a transformant yeast strain according to the following method. About 4×10^10 cells were collected from a culture containing about 2×10^7 cells/ml, suspended in Zymolyase solution [10 mM Tris-HCl (pH 7.5), 2.0M sorbitol, 0.1 mM dithiothreitol, 0.1 mM EDTA, 0.3 mg/ml Zymolyase 100T] and incubated at 30° C. for 1 hour to prepare spheroplasts. The spheroplasts were suspended in a sonication buffer (10 mM Tris-HCl (pH 7.5), 0.65M sorbitol, 0.1 mM dithiothreitol, 0.1 mM EDTA, 1 μg/ml leupeptin, 1 μg/ml pepstatin) and homogenized with a Teflon homogenizer to disrupt the cells.
(§2) Precipitate 1 was removed by centrifugation at 3000×g for 5 minutes to give supernatant 1'. Precipitate 1 was resuspended in a sonication buffer, homogenized again, centrifuged at 3000×g for 5 minutes to give precipitate 1 (undisrupted cells and nucleus fractions) and supernatant 1". […]
(§3) Reaction systems (2 ml) shown in the following but NADPH were mixed and preincubated at 37° C. for 5 minutes, and reaction was initiated by the addition of NADPH. […] The benzene layer obtained by centrifugation was dried completely and analyzed by HPLC under the condition listed below. […]

[2] = 27-hydroxylation activity of THC in yeast subcellular fractions with added ADX, ADR and NADPH; type: biochemical; details: expressed in yeast
Description: as §1, §2, §3

[3] = expressed in yeast

B1: P450c25: rat liver mitochondrial P450c25 expressed in yeast (protein, UniProt P17178 33-533, looked up)
Sterol 26-hydroxylase, …: AIPAALRDHESTEGPGTGQDRPRLRSLAELPGPGTLRFLFQLFLRGYVLHLHELQALNKAKYGPMWTTTFGTRTNVNLASAPLLEQVMRQEGKYPIRDSMEQWKEHRDHKGLSYGIFITQGQQWYHLRHSLNQRMLKPAEAALYTDALNEVISDFIARLDQVRTESASGDQVPDVAHLLYHLALEAICYILFEKRVGCLEPSIPEDTATFIRSVGLMFKNSVYVTFLPKWSRPLLPFWKRYMNNWDNIFSFGEKMIHQKVQEIEAQLQAAGPDGVQVSGYLHFLLTKELLSPQETVGTFPELILAGVDTTSNTLTWALYHLSKNPEIQEALHKEVTGVVPFGKVPQNKDFAHMPLLKAVIKETLRLYPVVPTNSRIITEKETEINGFLFPKNTQFVLCHYVVSRDPSVFPEPESFQPHRWLRKREDDNSGIQHPFGSVPFGYGVRSCLGRRIAELEMQLLLSRLIQKYEVVLSPGMGEVKSVSRIVLVPSKKVSLRFLQRQ
exhibited hydroxylation activities: hydroxylation activity to 1α-hydroxyvitamin D3 [1] | hydroxylation activity to THC [2] | hydroxylation activity to vitamin D3 [3]
